Laboratory results taken from publication PMC10931652, “Recombinant Rod Domain of Vimentin Reduces SARS-CoV-2 Viral Replication by Blocking Spike Protein–ACE2 Interactions” (International Journal of Molecular Sciences, 2024).

Target: T1, recombinant spike S1S2 extracellular domain of SARS-CoV-2 (S1S2ECD-His) (SARS-CoV-2, UniProt P0DTC2 14-1213, IRDye 800CW NHS ester label (as the probe of the peptide array only))
T1 construct: also called SARS-CoV-2 spike protein; S1S2 protein
Assay: BLI; S1S2ECD-His amine-coupled on AR2G sensors (10 µg/mL in 10 mM sodium acetate pH 4); rhRod in solution, 8 concentrations a run; Octet Red384; KD by non-linear regression of the steady-state response
Settings: both partners purified

B1: recombinant rod domain of vimentin (rhRod) (domain or fragment)
chain: not shown
modifications: IRDye 800CW NHS ester label (as the probe of the peptide array only)
notes: also called rhRod-1 to rhRod-7 (lots)
**Q.** Which Kd does the source give for B1 here?
**A.** The Kd was 163 nM.
